Substitutions are numbered along the chain they refer to. Numbers in names are those of the source. Where “and” joins values, the source holds several entries; their conditions need not be identical. Equal entries are not always repeated.
What was measured:
[1] = molecular target: T1, Trop-2 on Trop-2 expressing tumor cells (human, UniProt P09758 27-323); test: cell-based or functional assay
T1 sequence: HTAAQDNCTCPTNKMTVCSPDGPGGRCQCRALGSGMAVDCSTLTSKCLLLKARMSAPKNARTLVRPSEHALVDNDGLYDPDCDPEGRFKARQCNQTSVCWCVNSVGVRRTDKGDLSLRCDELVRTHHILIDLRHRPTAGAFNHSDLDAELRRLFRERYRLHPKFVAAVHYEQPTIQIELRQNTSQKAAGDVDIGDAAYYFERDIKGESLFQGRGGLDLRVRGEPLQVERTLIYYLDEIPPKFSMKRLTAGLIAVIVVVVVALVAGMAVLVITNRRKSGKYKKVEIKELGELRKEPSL

[2] = molecular target: T1, Trop-2 on Trop-2 expressing tumor cells; test: cell-based or functional assay; remark: listed apart in the source
[3] = molecular target: T2, monovalent human Trop2-ECD antigen (human, UniProt P09758 27-274); test: SPR (ProteOn XPR36), amine-coupled Fab, monovalent human Trop2-ECD as analyte, 25 C;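 note: GLC sensor chip, 3 min association then 15 min buffer dissociation, kinetics fit with a 1:1 Langmuir model, buffer of 10 mM sodium phosphate with 150 mM NaCl and 0.05% Tween-20 at pH 7.4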
T2 construct: also called human Trop2-ECD (Extracellular Domain)
T2 sequence: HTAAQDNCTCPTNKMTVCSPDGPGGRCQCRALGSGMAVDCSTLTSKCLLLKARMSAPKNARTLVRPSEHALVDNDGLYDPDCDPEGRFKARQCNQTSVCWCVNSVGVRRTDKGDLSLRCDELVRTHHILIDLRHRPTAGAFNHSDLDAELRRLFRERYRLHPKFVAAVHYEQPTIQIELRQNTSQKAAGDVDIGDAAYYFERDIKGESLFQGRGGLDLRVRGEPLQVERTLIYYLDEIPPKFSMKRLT
Procedure: Analysis of Fab/human Trop2-ECD (Extracellular Domain) interactions was performed using a Bio-Rad Proteon XPR36Surface Plasmon Resonance (SPR) biosensor (Bio-Rad, Hercules, Calif.) equipped with a GLC sensor chip. The assay temperature was 25° C., and the assay buffer was 10 mM Sodium Phosphate, 150 mM NaCl, 0.05% Tween-20, pH 7.4. […] In each analysis cycle, monovalent human Trop2-ECD antigen was flowed at 30 μL/min over the immobilized Fabs for 3 minutes followed by a buffer wash for 15 minutes to monitor dissociation of the Fab/Trop2 complex. The sensor surface was regenerated between analysis cycles, using three 18-second injections of a 2:1 mixture (by volume) of Pierce IgG Elution buffer:4 M NaCl (Pierce, Rockford, Ill.). […] The resulting data were fit to a 1:1 Langmuir binding model using the Proteon evaluation software.

[4] = molecular target: T3, cynomolgus monkey Trop-2-hFc (cynomolgus monkey, UniProt A0A2K5UE71 27-274); test: SPR (Biacore T200), cynomolgus Trop-2-hFc captured by anti-human Fc, Fab as analyte
T3 construct: also called cynoTrop-2; not shown: human Fc
T3 sequence: T2 sequence with M36V, K46E, S67N, I204V

B1: h7E6SVG-N297Q/K222R-PEG6MMAD (antibody, V domains shown)
VH: QVQLQESGPGLVKPSETLSLTCTVSGGSISSYGVHWIRQPPGKGLEWIGVIWTSGVTDYNSALMGRVTISVDTSKNQFSLKLSSVTAADTAVYYCARDGDYDRYTMDYWGQGTLVTVSS
VL: DIVMTQSPDSLAVSLGERATINCRASKSVSTSGYSYMHWYQQKPGQPPKLLIYLASNLESGVPDRFSGSGSGTDFTLTISSLQAEDVAVYYCQHSRELPYTFGQGTKLEIK
modifications: N297Q/K222R mutations in the CH2/Hinge domains of heavy chain; conjugated with PEG6-MMAD
Ab IC50, cell viability (CellTiter-Glo, 96 h), A431 (Trop2 +++) [1]: 0.07 nM | Ab IC50, cell viability (CellTiter-Glo, 96 h), BxPC3 (Trop2 ++) [1]: 0.03 nM | Ab IC50, cell viability (CellTiter-Glo, 96 h), Calu-3 (Trop2 ++) [1]: 0.5 nM | Ab IC50, cell viability (CellTiter-Glo, 96 h), Colo205 (Trop2 +) [1]: 21.1 nM | Ab IC50, cell viability (CellTiter-Glo, 96 h), MDA-MB-468 (Trop2 ++) [1]: 0.19 nM | Ab IC50, cell viability (CellTiter-Glo, 96 h), NCI-H292 (Trop2 ++) [1]: 0.03 nM | Ab IC50, cell viability (CellTiter-Glo, 96 h), NCI-H1650 (Trop2 ++) [1]: 0.38 nM | Ab IC50, cell viability (CellTiter-Glo, 96 h), OVCAR3 (Trop2 +++) [1]: 0.98 nM | Ab IC50, cell viability (CellTiter-Glo, 96 h), SKBR3 (Trop2 +/++) [1]: 0.08 nM

B2: h7E6SVG-TG6-vc0101 (antibody, human IgG1, V domains shown)
VH: B1 VH
VL: B1 VL
modifications: AcLys-vc-PABC-0101 on tag TG6 (LLQGA, SEQ ID NO: 79) at the C-terminus of the heavy chain
Ab IC50, cell viability (CellTiter-Glo, 96 h), A431 (Trop2 +++) [1]: 0.12 nM | Ab IC50, cell viability (CellTiter-Glo, 96 h), BxPC3 (Trop2 ++) [1]: 0.32 nM | Ab IC50, cell viability (CellTiter-Glo, 96 h), Calu-3 (Trop2 ++) [1]: 0.53 nM | Ab IC50, cell viability (CellTiter-Glo, 96 h), Colo205 (Trop2 +) [1]: 32.9 nM | Ab IC50, cell viability (CellTiter-Glo, 96 h), MDA-MB-468 (Trop2 ++) [1]: 0.77 nM | Ab IC50, cell viability (CellTiter-Glo, 96 h), NCI-H292 (Trop2 ++) [1]: 0.63 nM | Ab IC50, cell viability (CellTiter-Glo, 96 h), NCI-H1650 (Trop2 ++) [1]: 1.92 nM | Ab IC50, cell viability (CellTiter-Glo, 96 h), OVCAR3 (Trop2 +++) [1]: 0.56 nM | Ab IC50, cell viability (CellTiter-Glo, 96 h), SKBR3 (Trop2 +/++) [1]: 0.42 nM

B3: h7E6-SVGN-TG1-vcMMAD (AcLys-vcMMAD conjugate) (antibody, V domains shown)
VH: B1 VH
VL: B1 VL with G33N
Ab-IC50, cell viability (CellTiter-Glo, 96 h), A431 (Trop-2+++) [2]: 0.023 µg/mL and 0.153 nM | Ab-IC50, cell viability (CellTiter-Glo, 96 h), BxPC3 (Trop-2++) [2]: 0.051 µg/mL and 0.337 nM | Ab-IC50, cell viability (CellTiter-Glo, 96 h), CAPAN-2 (Trop-2+/++) [2]: 2.01 µg/mL and 13.4 nM | Ab-IC50, cell viability (CellTiter-Glo, 96 h), Colo205 (Trop-2+) [2]: 0.083 µg/mL and 0.552 nM

B4: h7E6-SVG-TG1-vcMMAD (Aminocapryl-vcMMAD conjugate) (antibody, V domains shown)
VH: B1 VH
VL: B1 VL
Ab-IC50, cell viability (CellTiter-Glo, 96 h), BxPC3 (Trop-2++) [2]: 0.034 µg/mL and 0.229 nM

B5: h7E6SVG-K222R-LCQ3-AcLys-vc-PABC-MMAD (antibody, human IgG1, V domains shown)
VH: B1 VH
VL: B1 VL
Ab-IC50, cell viability (CellTiter-Glo, 96 h), A431 (Trop-2+++) [2]: 0.01 µg/mL and 0.07 nM | Ab-IC50, cell viability (CellTiter-Glo, 96 h), BxPC3 (Trop-2++) [2]: 0.014 µg/mL and 0.092 nM | Ab-IC50, cell viability (CellTiter-Glo, 96 h), Colo205 (Trop-2+) [2]: 2.68 µg/mL and 17.9 nM

B6: h7E6-SVGL-TG1-vcMMAD (AcLys-vcMMAD conjugate) (antibody, V domains shown)
VH: B1 VH
VL: B1 VL with G33L
Ab-IC50, cell viability (CellTiter-Glo, 96 h), A431 (Trop-2+++) [2]: 0.018 µg/mL and 0.12 nM | Ab-IC50, cell viability (CellTiter-Glo, 96 h), CAPAN-2 (Trop-2+/++) [2]: 2.44 µg/mL and 16.3 nM | Ab-IC50, cell viability (CellTiter-Glo, 96 h), Colo205 (Trop-2+) [2]: 0.052 µg/mL and 0.345 nM

B7: h7E6-L-TG1-vcMMAD (AcLys-vcMMAD conjugate) (antibody, V domains shown)
VH: B1 VH with S54G, V56S, G65S
VL: B1 VL with G33L
Ab-IC50, cell viability (CellTiter-Glo, 96 h), A431 (Trop-2+++) [2]: 0.02 µg/mL and 0.132 nM | Ab-IC50, cell viability (CellTiter-Glo, 96 h), BxPC3 (Trop-2++) [2]: 0.035 µg/mL and 0.232 nM | Ab-IC50, cell viability (CellTiter-Glo, 96 h), CAPAN-2 (Trop-2+/++) [2]: 2.03 µg/mL and 13.5 nM | Ab-IC50, cell viability (CellTiter-Glo, 96 h), Colo205 (Trop-2+) [2]: 0.082 µg/mL and 0.549 nM

B8: h7E6SVG-LCQ04/K222R-vc0101 (antibody, human IgG1, V domains shown)
VH: B1 VH
VL: B1 VL
modifications: AcLys-vc-PABC-0101 on tag LCQ04 (SEQ ID NO: 79 as printed) at the C-terminus of the light chain; K222R in the heavy chain constant region
Ab IC50, cell viability (CellTiter-Glo, 96 h), BxPC3 (Trop2 ++) [1]: 0.11 nM | Ab IC50, cell viability (CellTiter-Glo, 96 h), Calu-3 (Trop2 ++) [1]: 1.51 nM | Ab IC50, cell viability (CellTiter-Glo, 96 h), NCI-H292 (Trop2 ++) [1]: 1.84 nM

B9: h7E6SVG-LCQ03/K222R-vc0101 (antibody, human IgG1, V domains shown)
VH: B1 VH
VL: B1 VL
modifications: AcLys-vc-PABC-0101 on tag LCQ03 (SEQ ID NO: 78) at the C-terminus of the light chain; K222R in the heavy chain constant region
Ab IC50, cell viability (CellTiter-Glo, 96 h), A431 (Trop2 +++) [1]: 0.03 nM | Ab IC50, cell viability (CellTiter-Glo, 96 h), BxPC3 (Trop2 ++) [1]: 0.13 nM | Ab IC50, cell viability (CellTiter-Glo, 96 h), Colo205 (Trop2 +) [1]: 174 nM

B10: h7E6SVG-TG6-AcLys-vc-PABC-MMAD (antibody, human IgG1, V domains shown)
VH: B1 VH
VL: B1 VL
Ab-IC50, cell viability (CellTiter-Glo, 96 h), A431 (Trop-2+++) [2]: 0.011 µg/mL and 0.072 nM | Ab-IC50, cell viability (CellTiter-Glo, 96 h), BxPC3 (Trop-2++) [2]: 0.032 µg/mL and 0.214 nM | Ab-IC50, cell viability (CellTiter-Glo, 96 h), Colo205 (Trop-2+) [2]: 0.209 µg/mL and 1.39 nM

B11: h7E6-N-TG1-vcMMAD (AcLys-vcMMAD conjugate) (antibody, V domains shown)
VH: B1 VH with S54G, V56S, G65S
VL: B1 VL with G33N
Ab-IC50, cell viability (CellTiter-Glo, 96 h), A431 (Trop-2+++) [2]: 0.024 µg/mL and 0.163 nM | Ab-IC50, cell viability (CellTiter-Glo, 96 h), CAPAN-2 (Trop-2+/++) [2]: 2.02 µg/mL and 13.5 nM | Ab-IC50, cell viability (CellTiter-Glo, 96 h), Colo205 (Trop-2+) [2]: 0.1 µg/mL and 0.668 nM

B12: h7E6-WT-TG1-vcMMAD (AcLys-vcMMAD conjugate) (antibody, V domains shown)
VH: B1 VH with S54G, V56S, G65S
VL: B1 VL
Ab-IC50, cell viability (CellTiter-Glo, 96 h), A431 (Trop-2+++) [2]: 0.022 µg/mL and 0.144 nM | Ab-IC50, cell viability (CellTiter-Glo, 96 h), BxPC3 (Trop-2++) [2]: 0.025 µg/mL and 0.169 nM | Ab-IC50, cell viability (CellTiter-Glo, 96 h), CAPAN-2 (Trop-2+/++) [2]: 1.96 µg/mL and 13 nM | Ab-IC50, cell viability (CellTiter-Glo, 96 h), Colo205 (Trop-2+) [2]: 0.445 µg/mL and 2.97 nM

B13: h7E6_SVG19 Fab (Fab, V domains shown)
VH: B1 VH with G99S
VL: B1 VL
notes: also called DS (h7E6_SVG19)
Kd [3]: > 75 nM | koff [3]: 0.045 s⁻¹ | kon [3]: < 600000 M⁻¹ s⁻¹ | t1/2 [3]: 0.26 min

B14: h7E6_SVG22 Fab (Fab, V domains shown)
VH: B1 VH with G99A
VL: B1 VL
notes: also called DA (h7E6_SVG22)
Kd [3]: > 75 nM | koff [3]: 0.013 s⁻¹ | kon [3]: < 180000 M⁻¹ s⁻¹ | t1/2 [3]: 0.86 min

B15: h7E6_SVG30 Fab (Fab, V domains shown)
VH: B1 VH with G99E
VL: B1 VL
notes: also called DE (h7E6_SVG30)
Kd [3]: > 75 nM | koff [3]: 0.064 s⁻¹ | kon [3]: < 850000 M⁻¹ s⁻¹ | t1/2 [3]: 0.18 min

B16: h7E6_SVG28 Fab (Fab, V domains shown)
VH: B1 VH with G99L
VL: B1 VL
notes: also called DL (h7E6_SVG28)
Kd [3]: > 75 nM | koff [3]: 0.016 s⁻¹ | kon [3]: < 210000 M⁻¹ s⁻¹ | t1/2 [3]: 0.72 min

B17: h7E6_SVG20 Fab (Fab, V domains shown)
VH: B1 VH with G99K
VL: B1 VL
notes: also called DK (h7E6_SVG20)
Kd [3]: > 75 nM | koff [3]: 0.013 s⁻¹ | kon [3]: < 170000 M⁻¹ s⁻¹ | t1/2 [3]: 0.88 min

B18: chimeric 7E6 recombinant Fab fragment (Fab, V domains shown)
VH: QVQLKESGPGLVAPSQSLSITCTVSGFSLTSYGVHWVRQPPGKGLEWLGVIWTGGSTDYNSALMSRLSINKDNSKSQVFLKMNSLQTDDTAMYYCARDGDYDRYTMDYWGQGTSVTVSS
VL: DIVLTQSPASLAVSLGQRATISCRASKSVSTSGYSYMHWYQQKPGQPPKLLIYLASNLESGVPARFSGSGSGTDFTLNIHPVEEEDAATYYCQHSRELPYTFGGGTKLEIK
notes: Recombinant chimeric Fab; also called mouse7E6
Kd [4]: 16.5 nM

B19: 6G11-TG1-vcMMAD (AcLys-vcMMAD conjugate) (antibody, V domains shown)
VH: QVQLQQPGAELVRPGASVKLSCKASGYTFTSYWINWVKQRPGHGLEWIGNIYPSDSYSNYNQKFKDKATLTVDKSSSTAYMQVSSPTSEDSAVYYCTYGSSFDYWGQGTTVTVSS
VL: DILLTQSPAILSVSPGERVSFSCRASQTIGTSIHWYQQRTNGSPRLLIKYASESISGIPSRFSGSGSGTDFTLSINSVESEDIADYYCQQSNSWPFTFGSGTKLEIK
Ab-IC50, cell viability (CellTiter-Glo, 96 h), A431 (Trop-2+++) [2]: 0.03 µg/mL and 0.197 nM | Ab-IC50, cell viability (CellTiter-Glo, 96 h), Colo205 (Trop-2+) [2]: 0.379 µg/mL and 2.52 nM

From patent publication US20140357844A1 (RINAT NEUROSCIENCE, published 2014)
